The supplement of paper PMC10065799, “High-throughput profiling of sequence recognition by tyrosine kinases and SH2 domains using bacterial peptide display” (eLife, 2023)

Legend:
[1] = tested on: AncSZ; assay: phosphorylation enrichment, bacterial display (enrichment ratio); higher = better substrate or ligand; peptides without Tyr show the background
[2] = biological target: EPHB1 (UniProt P54762); assay: as above
[3] = biological target: EPHB2 (UniProt P29323); assay: as above
[4] = biological target: FGFR1 (UniProt P11362); assay: as above
[5] = biological target: FGFR3 (UniProt P22607); assay: as above
[6] = tested on: Fer (mouse); assay: as above
[7] = biological target: Fes (UniProt P07332); assay: as above
[8] = biological target: Fyn (UniProt P06241); assay: as above
[9] = biological target: Hck (UniProt P08631); assay: as above
[10] = biological target: Jak2 (UniProt O60674); assay: as above
[11] = biological target: MERTK (UniProt Q12866); assay: as above
[12] = tested on: c-Abl (mouse); assay: as above
[13] = tested on: c-Src; assay: as above
[14] = biological target: Grb2 SH2 (UniProt P62993); assay: SH2 binding enrichment of the phosphorylated peptide, bacterial display (enrichment ratio); higher = better substrate or ligand; peptides without Tyr show the background
[15] = biological target: SHP2-C SH2; assay: as above
[16] = biological target: c-Src SH2; assay: as above
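Wherever SH2 binding enrichment of the phosphorylated peptide, bacterial display is given: peptide library displayed on the E. coli surface as eCPX fusions, selected cells deep-sequenced, score is each peptide's frequency after selection divided by its frequency in the input.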
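Wherever phosphorylation enrichment, bacterial display is given: 11-residue human phosphosite peptides and single-mutation variants displayed on the E. coli surface, counted by deep sequencing, each peptide's frequency after selection divided by its frequency in the unselected input library; frequency after pTyr selection over input frequency; kinase dosed for 20-30% of maximal phosphorylation in three min.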

Chain of Jak2 (O60674 whole entry, looked up): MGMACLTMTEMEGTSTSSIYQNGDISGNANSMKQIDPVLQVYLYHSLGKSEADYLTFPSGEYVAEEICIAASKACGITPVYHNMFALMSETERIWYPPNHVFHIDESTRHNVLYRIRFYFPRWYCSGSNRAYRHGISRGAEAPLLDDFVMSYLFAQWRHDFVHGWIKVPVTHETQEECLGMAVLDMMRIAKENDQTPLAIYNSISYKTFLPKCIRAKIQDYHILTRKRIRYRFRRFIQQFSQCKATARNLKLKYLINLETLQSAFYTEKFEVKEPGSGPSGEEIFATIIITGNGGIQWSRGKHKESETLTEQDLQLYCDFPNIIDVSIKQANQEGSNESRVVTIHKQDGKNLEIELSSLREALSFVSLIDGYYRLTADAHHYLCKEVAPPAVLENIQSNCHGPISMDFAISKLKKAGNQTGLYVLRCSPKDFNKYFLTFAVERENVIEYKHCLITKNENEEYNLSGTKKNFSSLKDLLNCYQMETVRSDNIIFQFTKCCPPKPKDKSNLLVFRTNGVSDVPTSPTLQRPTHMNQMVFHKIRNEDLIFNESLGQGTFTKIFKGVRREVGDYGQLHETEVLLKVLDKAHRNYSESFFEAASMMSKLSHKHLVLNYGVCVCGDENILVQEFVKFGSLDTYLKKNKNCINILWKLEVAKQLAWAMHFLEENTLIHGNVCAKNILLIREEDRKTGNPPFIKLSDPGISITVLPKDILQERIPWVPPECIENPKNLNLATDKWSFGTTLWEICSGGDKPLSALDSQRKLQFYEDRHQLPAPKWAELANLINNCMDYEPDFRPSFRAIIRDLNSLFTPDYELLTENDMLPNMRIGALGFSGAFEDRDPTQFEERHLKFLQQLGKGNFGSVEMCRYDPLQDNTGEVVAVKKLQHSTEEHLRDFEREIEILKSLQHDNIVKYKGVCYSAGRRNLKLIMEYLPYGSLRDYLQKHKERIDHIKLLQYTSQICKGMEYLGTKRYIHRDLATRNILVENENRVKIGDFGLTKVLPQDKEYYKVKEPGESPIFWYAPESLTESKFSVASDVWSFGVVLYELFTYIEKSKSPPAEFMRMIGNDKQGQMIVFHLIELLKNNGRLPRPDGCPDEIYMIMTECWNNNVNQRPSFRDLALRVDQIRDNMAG
Chain of EPHB2 (P29323 whole entry, looked up): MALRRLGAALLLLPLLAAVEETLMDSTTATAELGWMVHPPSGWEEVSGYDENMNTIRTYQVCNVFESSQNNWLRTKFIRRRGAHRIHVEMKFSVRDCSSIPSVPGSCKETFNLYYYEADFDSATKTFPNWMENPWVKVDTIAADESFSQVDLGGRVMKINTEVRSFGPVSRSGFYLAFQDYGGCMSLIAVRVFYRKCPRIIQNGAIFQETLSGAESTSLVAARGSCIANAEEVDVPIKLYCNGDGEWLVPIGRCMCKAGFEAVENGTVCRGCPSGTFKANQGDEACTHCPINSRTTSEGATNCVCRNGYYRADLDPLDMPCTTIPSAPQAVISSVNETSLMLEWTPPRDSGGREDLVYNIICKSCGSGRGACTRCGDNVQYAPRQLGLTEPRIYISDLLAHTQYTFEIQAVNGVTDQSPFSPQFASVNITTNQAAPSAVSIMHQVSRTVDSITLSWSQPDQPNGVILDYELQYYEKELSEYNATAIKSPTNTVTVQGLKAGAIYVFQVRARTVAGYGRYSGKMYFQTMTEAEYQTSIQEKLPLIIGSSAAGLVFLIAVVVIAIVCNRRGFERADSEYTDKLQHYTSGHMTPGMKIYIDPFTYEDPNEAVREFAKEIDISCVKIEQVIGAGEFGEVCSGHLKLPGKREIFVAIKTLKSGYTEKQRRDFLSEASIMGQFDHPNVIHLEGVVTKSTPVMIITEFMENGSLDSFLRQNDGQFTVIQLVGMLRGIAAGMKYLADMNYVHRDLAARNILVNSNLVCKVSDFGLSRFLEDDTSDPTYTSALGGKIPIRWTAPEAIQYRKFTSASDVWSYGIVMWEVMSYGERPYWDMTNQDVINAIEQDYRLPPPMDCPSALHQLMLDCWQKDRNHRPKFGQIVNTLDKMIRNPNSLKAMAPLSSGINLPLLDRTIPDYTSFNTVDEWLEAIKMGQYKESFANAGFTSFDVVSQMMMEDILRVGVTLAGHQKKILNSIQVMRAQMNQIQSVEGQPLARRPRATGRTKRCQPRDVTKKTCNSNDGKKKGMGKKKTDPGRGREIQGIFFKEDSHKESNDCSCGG
Chain of EPHB1 (P54762 whole entry, looked up): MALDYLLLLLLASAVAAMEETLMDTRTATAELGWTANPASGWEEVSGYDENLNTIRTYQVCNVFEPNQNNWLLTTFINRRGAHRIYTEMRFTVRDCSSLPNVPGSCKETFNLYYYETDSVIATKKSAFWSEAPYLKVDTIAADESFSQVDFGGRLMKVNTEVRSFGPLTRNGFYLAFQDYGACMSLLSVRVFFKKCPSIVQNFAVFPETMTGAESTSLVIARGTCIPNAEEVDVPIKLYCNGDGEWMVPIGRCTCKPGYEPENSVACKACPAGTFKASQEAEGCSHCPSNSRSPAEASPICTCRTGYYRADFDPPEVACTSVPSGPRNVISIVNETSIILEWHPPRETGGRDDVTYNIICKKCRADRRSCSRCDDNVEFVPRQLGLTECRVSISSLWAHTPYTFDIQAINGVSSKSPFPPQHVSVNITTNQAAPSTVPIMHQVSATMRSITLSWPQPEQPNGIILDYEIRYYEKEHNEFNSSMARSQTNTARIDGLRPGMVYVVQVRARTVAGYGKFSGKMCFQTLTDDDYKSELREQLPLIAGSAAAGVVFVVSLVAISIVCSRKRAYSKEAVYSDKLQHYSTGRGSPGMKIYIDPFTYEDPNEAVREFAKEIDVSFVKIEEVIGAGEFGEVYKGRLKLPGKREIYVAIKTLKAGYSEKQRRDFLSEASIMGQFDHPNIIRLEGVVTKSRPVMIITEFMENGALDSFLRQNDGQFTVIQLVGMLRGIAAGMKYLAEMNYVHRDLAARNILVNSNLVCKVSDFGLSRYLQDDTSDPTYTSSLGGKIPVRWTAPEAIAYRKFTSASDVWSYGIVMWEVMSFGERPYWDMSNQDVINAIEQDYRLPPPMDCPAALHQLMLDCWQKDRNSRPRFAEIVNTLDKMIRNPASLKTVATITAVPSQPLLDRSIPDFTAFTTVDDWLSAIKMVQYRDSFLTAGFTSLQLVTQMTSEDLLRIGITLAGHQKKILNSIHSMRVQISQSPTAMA
Chain of Fes (P07332 whole entry, looked up): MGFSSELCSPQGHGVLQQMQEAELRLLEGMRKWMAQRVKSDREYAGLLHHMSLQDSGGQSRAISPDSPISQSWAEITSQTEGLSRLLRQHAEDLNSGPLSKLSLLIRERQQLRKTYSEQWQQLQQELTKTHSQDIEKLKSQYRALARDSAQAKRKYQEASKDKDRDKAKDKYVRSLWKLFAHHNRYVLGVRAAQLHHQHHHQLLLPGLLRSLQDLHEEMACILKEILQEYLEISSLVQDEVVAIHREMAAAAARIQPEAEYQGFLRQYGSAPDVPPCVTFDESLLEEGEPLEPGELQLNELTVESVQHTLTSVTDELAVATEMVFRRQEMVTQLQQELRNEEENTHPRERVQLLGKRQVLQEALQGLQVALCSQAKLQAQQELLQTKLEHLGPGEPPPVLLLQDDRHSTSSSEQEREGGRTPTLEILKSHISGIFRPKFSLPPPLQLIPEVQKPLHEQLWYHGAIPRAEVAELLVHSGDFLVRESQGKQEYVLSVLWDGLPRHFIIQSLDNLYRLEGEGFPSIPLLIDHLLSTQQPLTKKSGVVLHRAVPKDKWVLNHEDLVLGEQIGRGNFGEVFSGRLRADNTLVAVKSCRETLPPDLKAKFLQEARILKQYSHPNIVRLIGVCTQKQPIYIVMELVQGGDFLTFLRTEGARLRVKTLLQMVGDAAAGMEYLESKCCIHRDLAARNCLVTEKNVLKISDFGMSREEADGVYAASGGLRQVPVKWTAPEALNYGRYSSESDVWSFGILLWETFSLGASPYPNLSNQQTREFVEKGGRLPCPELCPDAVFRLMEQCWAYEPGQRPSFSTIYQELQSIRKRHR
Chain of FGFR1 (P11362 whole entry, looked up): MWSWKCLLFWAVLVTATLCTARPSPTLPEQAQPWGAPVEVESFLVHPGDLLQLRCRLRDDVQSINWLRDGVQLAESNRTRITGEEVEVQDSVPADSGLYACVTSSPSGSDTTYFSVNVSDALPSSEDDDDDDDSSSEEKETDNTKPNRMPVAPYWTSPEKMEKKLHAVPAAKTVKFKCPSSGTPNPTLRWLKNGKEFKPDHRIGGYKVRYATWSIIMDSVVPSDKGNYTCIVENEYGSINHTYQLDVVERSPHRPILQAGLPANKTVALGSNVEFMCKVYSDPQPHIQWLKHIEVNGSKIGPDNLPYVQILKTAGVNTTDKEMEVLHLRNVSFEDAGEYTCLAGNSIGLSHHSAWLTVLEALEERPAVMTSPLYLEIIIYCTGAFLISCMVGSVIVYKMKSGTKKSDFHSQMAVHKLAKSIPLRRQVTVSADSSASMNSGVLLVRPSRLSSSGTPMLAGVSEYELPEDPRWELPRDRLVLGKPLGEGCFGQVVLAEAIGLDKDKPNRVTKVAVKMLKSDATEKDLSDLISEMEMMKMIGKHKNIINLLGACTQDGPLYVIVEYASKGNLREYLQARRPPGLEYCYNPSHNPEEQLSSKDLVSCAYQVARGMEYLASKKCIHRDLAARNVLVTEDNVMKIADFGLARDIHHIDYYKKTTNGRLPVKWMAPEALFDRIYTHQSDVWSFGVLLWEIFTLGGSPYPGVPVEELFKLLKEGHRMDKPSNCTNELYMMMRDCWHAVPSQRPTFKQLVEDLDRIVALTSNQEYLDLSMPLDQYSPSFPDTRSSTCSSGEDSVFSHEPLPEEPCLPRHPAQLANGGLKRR
Chain of Grb2 SH2 (P62993 whole entry, looked up): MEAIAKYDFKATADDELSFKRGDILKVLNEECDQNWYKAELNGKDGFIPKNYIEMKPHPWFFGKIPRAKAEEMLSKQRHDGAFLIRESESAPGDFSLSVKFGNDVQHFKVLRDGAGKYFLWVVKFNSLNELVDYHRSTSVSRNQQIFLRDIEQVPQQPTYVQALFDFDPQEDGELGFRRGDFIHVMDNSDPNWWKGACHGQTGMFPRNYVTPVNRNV

| Sequence | phosphorylation enrichment [1] | phosphorylation enrichment [2] | phosphorylation enrichment [3] | phosphorylation enrichment [4] | phosphorylation enrichment [5] | phosphorylation enrichment [6] | phosphorylation enrichment [7] | phosphorylation enrichment [8] | phosphorylation enrichment [9] | phosphorylation enrichment [10] | phosphorylation enrichment [11] | phosphorylation enrichment [12] | phosphorylation enrichment [13] | SH2 binding enrichment [14] | SH2 binding enrichment [15] | SH2 binding enrichment [16] |
| --- | --- | --- | --- | --- | --- | --- | --- | --- | --- | --- | --- | --- | --- | --- | --- | --- |
| IPQEEYTATGL | 1.16 | 0.622 | 0.512 | 0.506 | 0.653 | 0.562 | 1.39 | 0.437 | 0.461 | 0.955 | 0.378 | 0.924 | 0.56 | 0.799 | 0.79 | 0.441 |
| IQKKFYRAILE [CHD7_Y1218_YF] | 0.523 | 0.396 | 0.275 | 0.37 | 0.46 | 0.398 | 0.727 | 0.344 | 0.332 | 0.636 | 0.409 | 0.51 | 0.414 | 0.769 | 0.699 | 0.685 |
| IRGNMYFENSF [EGFR_Y112_YF] | 0.879 | 0.581 | 0.547 | 0.514 | 0.713 | 0.527 | 1.07 | 0.438 | 0.457 | 0.841 | 0.536 | 0.583 | 0.395 | 0.895 | 1.05 | 0.606 |
| IRKVLYANNVM [ACTA1_Y296_D294V] | 0.569 | 0.311 | 0.368 | 0.567 | 0.395 | 0.337 | 0.599 | 0.286 | 0.297 | 0.637 | 0.328 | 0.529 | 0.325 | 1.44 | 0.944 | 0.82 |
| IRTIDYRYTVC [IDS_Y497_W502C] | 0.965 | 0.653 | 0.52 | 0.555 | 0.754 | 0.572 | 1.02 | 0.51 | 0.561 | 0.965 | 0.478 | 0.65 | 0.461 | 0.884 | 0.948 | 2.77 |
| ISDDKYGRIRL [ARCN1_Y310] | 0.484 | 0.357 | 1.04 | 0.407 | 0.357 | 0.312 | 0.501 | 0.434 | 0.454 | 0.419 | 0.325 | 0.433 | 0.56 | 0.806 | 0.639 | 0.434 |
| ISDNAYQFMLT [MYH7_Y162_YF] | 1.22 | 0.662 | 0.526 | 1.83 | 1.51 | 5.75 | 1.19 | 0.654 | 0.684 | 0.957 | 0.883 | 1.09 | 0.807 | 0.762 | 0.841 | 0.735 |
| ISIFHCAKGQP [MPZ_Y82_Y82C] | 1.33 | 0.773 | 0.845 | 0.729 | 1.02 | 0.643 | 1.7 | 0.602 | 0.608 | 1.41 | 0.62 | 0.954 | 0.609 | 1.04 | 0.521 | 0.524 |
| ISRASYYRKGG [ALK_Y1282_Y1278S] | 0.588 | 0.427 | 0.428 | 0.409 | 0.532 | 0.473 | 0.701 | 0.511 | 0.496 | 0.51 | 0.576 | 0.569 | 0.509 | 0.655 | 0.426 | 0.362 |
| ISRLKYPVSQQ [BTK_Y375] | 0.419 | 0.331 | 0.383 | 0.317 | 0.399 | 0.318 | 0.59 | 0.355 | 0.352 | 0.534 | 0.313 | 0.486 | 0.342 | 0.938 | 1.04 | 0.831 |
| ISSLDYISKSK [VAV3_Y294_T298S] | 0.648 | 0.38 | 0.467 | 0.458 | 0.587 | 0.443 | 0.688 | 0.431 | 0.443 | 0.743 | 0.482 | 0.81 | 0.478 | 0.781 | 0.629 | 0.365 |
| ITGNGYYFRVF [MYBPC3_Y1135_I1131T] | 1.04 | 0.561 | 0.589 | 0.41 | 0.72 | 0.488 | 1.08 | 0.384 | 0.385 | 0.936 | 0.294 | 0.701 | 0.301 | 0.665 | 0.799 | 0.475 |
| ITNHIYTWVDP [DFNB31_Y234_V229I] | 2.4 | 2.92 | 1.62 | 3.64 | 2.95 | 9.75 | 1.97 | 4.11 | 2.66 | 1.06 | 8.78 | 0.832 | 4.2 | 1.05 | 0.791 | 0.99 |
| ITNLLYHLVGW [GBA_Y412_V414L] | 1.09 | 2.74 | 1.04 | 6.54 | 5.47 | 3.17 | 0.866 | 2.56 | 4.8 | 1.47 | 8.16 | 0.703 | 2.99 | 1.72 | 1.84 | 1.49 |
| KAFDMYSGDVM [FAM3D_Y122] | 0.832 | 1.18 | 1.15 | 0.593 | 0.569 | 0.423 | 0.732 | 0.846 | 1.23 | 0.653 | 0.876 | 0.508 | 0.935 | 0.829 | 0.559 | 0.462 |
| KDHPDYKYPPR [SOX10_Y171_Q174P] | 0.612 | 0.355 | 0.392 | 0.549 | 0.522 | 0.345 | 0.601 | 0.438 | 0.381 | 0.462 | 0.331 | 0.515 | 0.4 | 1.08 | 0.961 | 0.637 |
| KDHPDYKYQRR [SOX10_Y171_P175R] | 0.483 | 0.33 | 0.3 | 0.402 | 0.369 | 0.303 | 0.574 | 0.283 | 0.367 | 0.519 | 0.349 | 0.516 | 0.319 | 1.03 | 1.17 | 0.829 |

| Sequence | phosphorylation enrichment [1] | phosphorylation enrichment [2] | phosphorylation enrichment [3] | phosphorylation enrichment [4] | phosphorylation enrichment [5] | phosphorylation enrichment [6] | phosphorylation enrichment [7] | phosphorylation enrichment [8] | phosphorylation enrichment [9] | phosphorylation enrichment [10] | phosphorylation enrichment [11] | phosphorylation enrichment [12] | phosphorylation enrichment [13] | SH2 binding enrichment [14] | SH2 binding enrichment [15] | SH2 binding enrichment [16] |
| --- | --- | --- | --- | --- | --- | --- | --- | --- | --- | --- | --- | --- | --- | --- | --- | --- |
| KDHRDYKYQPR [SOX9_Y172_P170R] | 0.534 | 0.397 | 0.424 | 0.482 | 0.514 | 0.445 | 0.864 | 0.61 | 0.489 | 0.779 | 0.456 | 0.784 | 0.426 | 1.26 | 1.08 | 1.22 |
| KDQGTYEDYVE [MYL6_Y86] | 1.24 | 0.493 | 0.576 | 0.534 | 0.721 | 0.56 | 1.23 | 0.647 | 0.617 | 1.13 | 0.543 | 0.866 | 0.768 | 0.755 | 0.553 | 0.784 |
| KDYETYQPFQN [CTNND2_Y1157] | 1.72 | 3.29 | 7.67 | 0.686 | 0.801 | 1.47 | 1.17 | 6 | 6.07 | 0.883 | 0.514 | 0.846 | 4.83 | 0.887 | 0.664 | 0.43 |
| KEAVLYPHLPP [SQSTM1_Y383_A381V] | 0.566 | 0.409 | 0.579 | 0.444 | 0.646 | 0.363 | 0.727 | 0.415 | 0.385 | 0.659 | 0.422 | 0.798 | 0.464 | 0.911 | 0.658 | 0.514 |
| KEEEDYKEENN [BMS1_Y651] | 1.15 | 0.532 | 0.554 | 0.468 | 0.561 | 0.55 | 1.06 | 0.475 | 0.516 | 1 | 0.422 | 0.75 | 0.453 | 0.769 | 0.716 | 0.499 |
| KELANYYKLHH [AK7_Y390] | 0.708 | 4.12 | 1.89 | 2.93 | 1.83 | 0.383 | 0.685 | 0.453 | 0.495 | 2.44 | 0.844 | 0.497 | 0.509 | 0.825 | 0.622 | 0.697 |
| KELAPYDENWF [RPS19_Y48] | 1.2 | 0.506 | 0.618 | 0.563 | 0.664 | 0.53 | 1.12 | 0.506 | 0.517 | 1.06 | 0.421 | 0.597 | 0.458 | 0.957 | 0.685 | 0.767 |
| KENITYMKSEQ [L1TD1_Y24_R27S] | 0.806 | 0.411 | 0.426 | 0.456 | 0.524 | 0.32 | 0.767 | 0.358 | 0.457 | 0.585 | 0.39 | 0.503 | 0.425 | 1.01 | 0.629 | 0.53 |
| KFDLMYAKCAF [TUBA1A_Y399_R402C] | 1.27 | 0.72 | 0.723 | 0.491 | 0.841 | 0.68 | 1.35 | 0.567 | 0.677 | 1.25 | 0.624 | 1.06 | 0.598 | 0.687 | 0.473 | 0.557 |
| KFDLMYAKHAF [TUBA1A_Y399_R402H] | 0.794 | 0.521 | 0.543 | 0.397 | 0.564 | 1.07 | 0.987 | 0.435 | 0.438 | 0.805 | 0.408 | 0.573 | 0.44 | 0.847 | 0.772 | 0.527 |
| KFGTNYRVGSS [CPO_Y278_YF] | 1.04 | 0.422 | 0.382 | 0.509 | 0.567 | 0.418 | 0.803 | 0.444 | 0.465 | 0.767 | 0.508 | 0.725 | 0.466 | 1.23 | 0.914 | 0.586 |
| KGFCGYSFDDI [TMEM230_Y110_R108C_YF] | 1.18 | 0.613 | 0.568 | 0.595 | 0.863 | 0.504 | 1.35 | 0.526 | 0.456 | 1.28 | 0.471 | 1.07 | 1.16 | 0.71 | 0.516 | 0.983 |
| KGLKVYVNGTL [ADGRD1_Y183_E178K] | 1.11 | 0.524 | 0.576 | 0.421 | 0.677 | 0.452 | 1.16 | 0.364 | 0.441 | 0.923 | 0.431 | 0.584 | 0.406 | 1.32 | 0.703 | 0.549 |
| KGTAGYTTVAV [RET_Y752_R749T] | 0.517 | 0.46 | 0.362 | 0.327 | 0.34 | 0.313 | 0.493 | 0.359 | 0.357 | 0.398 | 0.349 | 0.448 | 0.37 | 0.757 | 2.15 | 1.99 |
| KHTLSFVDVGT [SDHA_Y629_Y629F] | 0.661 | 0.319 | 0.495 | 0.348 | 0.497 | 0.371 | 0.691 | 0.384 | 0.364 | 0.624 | 0.315 | 0.451 | 0.292 | 0.862 | 0.54 | 0.562 |
| KIDAKYKKKIE [WDR19_Y1230] | 0.698 | 0.27 | 0.373 | 0.368 | 0.368 | 0.401 | 0.891 | 0.308 | 0.408 | 0.594 | 0.418 | 0.631 | 0.346 | 0.601 | 0.602 | 0.367 |
